Experimental data from patent US20250136695A1.
One block for each substance: values may come before it.

Columns and labels:
[1] = molecular target: PDL1 expressed on recombinant CHO cells (CHO-K1/PDL1; aAPC CHO-PDL1) (UniProt Q9NZQ7)
PDL1 (Fc-cut) antigen [2] = molecular target: PDL1 (Fc-cut) antigen (UniProt Q9NZQ7); assay: ELISA on coated PDL1 (Fc-cut), IgG (H+L) secondary antibody; PBS blank 0.121 / 0.102
PDL1 (Fc-cut) antigen [3] = molecular target: PDL1 (Fc-cut) antigen (UniProt Q9NZQ7); assay: ELISA on coated PDL1 (Fc-cut), VHH secondary antibody; PBS blank 0.181 / 0.212

Chain of PDL1 (Fc-cut) antigen (Q9NZQ7 19-238 limits assumed): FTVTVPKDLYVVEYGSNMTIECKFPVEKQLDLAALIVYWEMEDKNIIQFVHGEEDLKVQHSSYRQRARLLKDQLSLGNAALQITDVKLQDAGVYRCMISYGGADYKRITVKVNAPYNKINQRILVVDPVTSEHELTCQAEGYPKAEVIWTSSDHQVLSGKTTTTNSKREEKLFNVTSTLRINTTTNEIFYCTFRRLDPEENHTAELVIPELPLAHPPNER
Chain of PDL1 expressed on recombinant CHO cells (CHO-K1/PDL1; aAPC CHO-PDL1) (Q9NZQ7 19-290 limits assumed): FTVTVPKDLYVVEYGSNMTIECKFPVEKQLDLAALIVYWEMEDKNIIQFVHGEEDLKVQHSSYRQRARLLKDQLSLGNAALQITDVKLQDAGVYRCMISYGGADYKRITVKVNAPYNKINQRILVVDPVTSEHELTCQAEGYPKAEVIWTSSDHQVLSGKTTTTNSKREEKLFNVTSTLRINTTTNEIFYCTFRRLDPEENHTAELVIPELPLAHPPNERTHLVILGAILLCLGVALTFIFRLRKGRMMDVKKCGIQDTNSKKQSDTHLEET

- EC50 of the PD1/PDL1 Block Assay (luciferase fold of induction, Jurkat-PD-1-NFAT-Luc + aAPC CHO-PDL1) [1]: 6.04 µg/mL
Substance: Atezolizumab (antibody)

- OD450, serum 1:1K, well 1 of 2 (PDL1 (Fc-cut) antigen [2]): 0.189
- OD450, serum 1:1K, well 2 of 2 (PDL1 (Fc-cut) antigen [2]): 0.176
- OD450, serum 1:2K, well 1 of 2 (PDL1 (Fc-cut) antigen [2]): 0.145
- OD450, serum 1:2K, well 2 of 2 (PDL1 (Fc-cut) antigen [2]): 0.159
- OD450, serum 1:4K, well 1 of 2 (PDL1 (Fc-cut) antigen [2]): 0.124
- OD450, serum 1:4K, well 2 of 2 (PDL1 (Fc-cut) antigen [2]): 0.12
- OD450, serum 1:8K, well 1 of 2 (PDL1 (Fc-cut) antigen [2]): 0.107
- OD450, serum 1:8K, well 2 of 2 (PDL1 (Fc-cut) antigen [2]): 0.116
- OD450, serum 1:16K, well 1 of 2 (PDL1 (Fc-cut) antigen [2]): 0.118
- OD450, serum 1:16K, well 2 of 2 (PDL1 (Fc-cut) antigen [2]): 0.12
- OD450, serum 1:32K, well 1 of 2 (PDL1 (Fc-cut) antigen [2]): 0.125
- OD450, serum 1:32K, well 2 of 2 (PDL1 (Fc-cut) antigen [2]): 0.118
- OD450, serum 1:64K, well 1 of 2 (PDL1 (Fc-cut) antigen [2]): 0.141
- OD450, serum 1:64K, well 2 of 2 (PDL1 (Fc-cut) antigen [2]): 0.115
- OD450, serum 1:1K, well 1 of 2 (PDL1 (Fc-cut) antigen [3]): 0.176
- OD450, serum 1:1K, well 2 of 2 (PDL1 (Fc-cut) antigen [3]): 0.166
- OD450, serum 1:2K, well 1 of 2 (PDL1 (Fc-cut) antigen [3]): 0.194
- OD450, serum 1:2K, well 2 of 2 (PDL1 (Fc-cut) antigen [3]): 0.213
- OD450, serum 1:4K, well 1 of 2 (PDL1 (Fc-cut) antigen [3]): 0.207
- OD450, serum 1:4K, well 2 of 2 (PDL1 (Fc-cut) antigen [3]): 0.236
- OD450, serum 1:8K, well 1 of 2 (PDL1 (Fc-cut) antigen [3]): 0.205
- OD450, serum 1:8K, well 2 of 2 (PDL1 (Fc-cut) antigen [3]): 0.236
- OD450, serum 1:16K, well 1 of 2 (PDL1 (Fc-cut) antigen [3]): 0.232
- OD450, serum 1:16K, well 2 of 2 (PDL1 (Fc-cut) antigen [3]): 0.249
- OD450, serum 1:32K, well 1 of 2 (PDL1 (Fc-cut) antigen [3]): 0.224
- OD450, serum 1:32K, well 2 of 2 (PDL1 (Fc-cut) antigen [3]): 0.253
- OD450, serum 1:64K, well 1 of 2 (PDL1 (Fc-cut) antigen [3]): 0.201
- OD450, serum 1:64K, well 2 of 2 (PDL1 (Fc-cut) antigen [3]): 0.224
Substance: Unimmunized serum
